In patent US20200171068A1, “COMPOSITIONS COMPRISING APTAMERS AND NUCLEIC ACID PAYLOADS AND METHODS OF USING THE SAME” (Children's National Medical Center, priority 2017, published 2020):

B1: miR-26a chimera: mouse c-Kit DNA aptamer-C3-passenger RNA, passenger RNA-TEG-cholesterol and miR-26a-5p guide strand annealed (SEQ ID NO:6/7, 8, 9) (nucleic acid)
chain 1: GCTCAACGCGGGACGGCTCTCCCATTGAC
chain 2: CCUAUUCUGG
chain 3: GUUACUUGCACG
guide: UUCAAGUAAUCCAGGAUAGGCU
modifications: chemistry not fully specified

Test system: hematopoiesis
Type: in vivo, mouse
Experimental: The mice received intravenous injection of 670 pmol/20 g miR-26a or control chimera daily for 3 days. 150 mg/kg 5-FU was injected on day 2 of the chimera treatment. FIG. 2A is a graph showing the numbers of white blood cells (WBC) 10 days after 5-FU treatment. Data (mean+s.d.) were pooled from two experiments, involving a total of 6 mice per group. FIG. 2B is a graph showing the number of bone marrow (BM) cells 10 days after 5-FU treatment. Data (mean+s.d.) were pooled from two experiments, involving a total of 6 mice per group. FIG. 2C is (left) a representative picture of LSK population 5 days after 5-FU treatment with or without miR-26a chimera treatment; and (right) a graph showing the percentages of LSK population. Data (mean+s.d.) were pooled from two experiments, involving a total of 6 mice per group. FIG. 2D is a series of graphs showing apoptosis. Left, representative picture of Annexin V^+ in LSK population 5 days after 5-FU treatment. Right, the percentages of Annexin V^+ in the LSK population. Data (mean+s.d.) were pooled from two experiments, involving a total of 6 mice per group. *P<0.05, **P<0.01. FIG. 2E is a picture showing a putative miR-26a target site in the 3′UTR of mouse Bak1 (SEQ ID NO:19). Base pairs CU-GA -UACUUGAA (SEQ ID NO:20) of the Bak Sequence and its complementary basepairs are the sites with highly probability preferential conservation between mammals. The miR-26a sequence depicted is SEQ ID NO:21. FIG. 2F is a graph showing relative luciferase activity of reporter constructs containing the wild-type or mutant (mut) 3′-UTR of mouse Bak1 in HEK293 cells co-transfected with either miR-26a precursor (OE), miR-26a TuD inhibitor (TuD), or negative control (ctrl). Data were pooled from two experiments. FIG. 2G is a graph showing relative expression level of Bak1 mRNA in LSK population 5 days after 5-FU treatment. Data (mean+s.d.) were pooled from two experiments, involving a total of 6 mice per group. FIG. 2H is a graph showing that targeted mutation of the Bak1 gene increased survival of LSK in BM at day 5 after 150 mg/kg 5-FU treatments. Data shown are percent of LSK in BM (n=3 for Bak1^+/+ mice and n=4 for Bak1^−/− mice). […] of Bak1^+/+ and Bak1^−/− LSK in BM. Data shown percent of untreated, after normalization using means of LSK % from BM of two untreated Bak1^+/+ and Bak1^−/− mice as 100%. FIG. 2J is a graph showing the numbers of WBC 10 days after 150 mg/kg 5-FU treatments between Bak1^−/− mice and wild type mice. Data (mean+s.d.) were pooled from two experiments, involving a total of 7 mice per group. *P<0.05, **P<0.01.
For xenograft models, the NSG mice and BALB/c mice were subcutaneously injected with 2×10^6 viable MDA-MB-231 cells and TUBO cells in their right hind limbs, respectively. After the tumor grew to 1 cm in diameter, mice were randomly divided into the groups for each treatment. For no treatment control, 100 μl saline with 1% mouse serum was intravenously injected through tail vein. […] Tumor sizes were measured in two dimensions every 3 days. Tumor volume (V) was calculated using the following formula: V=(½) S^2×L (S. the shortest dimension; L, the longest dimension). Animals were euthanized when the tumor size was over 2 cm diameters, tumor ulcerated, or became necrotic. For chimera treatment in normal mice, C57BL/6 mice were treated with miR-26a chimera (670 pmol/20 g) everyday for 3 days by intravenous injection. At day 2, 150 mg/kg 5-FU and/or 120 mg/kg carboplatin was injected together with the chimera. Peripheral bloods were collected at day 5 and day 10 after the 5-FU treatment. Complete blood counts were measured by Hemavet 950FS (Drew Scientific, Miami Lakes, Fla., USA).
For aptamer binding assay, streptavidin-APC (Cat #554067) […] Bioscience, San Jose, Calif., USA) was used for detecting the biotin-conjugated aptamers by flow cytometry. Other cell targeting aptamer specific for Ramos cells (28) was used for negative control. […]

Molecule | reduction in the LSK population (C57BL/6, mouse, in vivo, 5 days) | Bak1 expression in LSK cells (mouse, in vivo) | percent of apoptotic (Annexin V+) LSK (mouse, in vivo) | 5-FU-induced myelosuppression (leukocyte counts, bone marrow cellularity) (670 pmol/20 g chimera i.v. daily for 3 days, 150 mg/kg 5-FU on day 2) | 5-FU-induced myelosuppression (WBC, RBC, PLT), chimera mixed with 5-FU (150 mg/kg 5-FU with 2 nmol/20 g chimera i.v. at same time, 5 and 10 days) | prevention of 5-FU-induced reduction in the LSK population (5 days after 5-FU, chimera 670 pmol/20 g daily for 3 days) | protection of LSK from 5-FU-induced apoptosis (5 days after 5-FU, chimera treatment) | 5-FU-induced Bak elevation in LSK cells (mouse, in vivo)
O=c1[nH]cc(F)c(=O)[nH]1 [5-FU, 5-fluorouracil, reference compound] | ~10 fold | massively induced | massively increased | – | – | – | – | –
B1 | – | – | – | significantly ameliorated myelosuppression | protects mice against 5-FU-induced myelosuppression | largely prevented | specifically protected | significantly diminished
